In patent US20250271431A1:

Tests used:
Assay in all cases: RepliTope peptide microarray, Cy5 fluorescence
[1] = biological target: epitope sequence SEQ ID No 18 (…) (SARS-CoV-2)
[2] = biological target: epitope sequence SEQ ID No 35 (…) (SARS-CoV-2)
[3] = biological target: epitope sequence SEQ ID No 17 (…) (SARS-CoV-2)
[4] = biological target: epitope sequence SEQ ID No 37 (…) (SARS-CoV-2)
[5] = biological target: epitope sequence SEQ ID No 15 (…) (SARS-CoV-2)
[6] = biological target: epitope sequence SEQ ID No 19 (…) (SARS-CoV-2)

B1: hcAb B10 (clone B10), camelid full length IgG2 heavy chain only antibody (antibody)
heavy: DVQLQESGGGLVQPGGSLRLSCAASGDINTIGTMNWFRQAPGKGREFVALITSGGTTNYADSVKGRFTVSRDNAKNTVYLQMNSLKPEDTAVYHCYGADHYSDYWGQGTQVTVSSEPKTPKPQPQPQPQPNPTTESKCPKCPAPELLGGPSVFIFPPKPKDVLSISGRPEVTCVVVDVGQEDPEVSFNWYIDGAEVRTANTRPKEEQFNSTYRVVSVLPIQHQDWLTGKEFKCKVNNKALPAPIEKTISKAKGQTREPQVYALAPHREELAKDTVSVTCLVKGFYPPDINVEWQRNRQPEPEGTYATTPPQLDNDGTYFLYSKLSVGKNTWQRGETFTCVVMHETLHNHYTQKSISQS
average signal intensity (mean pixel value) [1]: 32800 | average signal intensity (mean pixel value) [2]: 10500 | average signal intensity (mean pixel value) [3]: 45000 | average signal intensity (mean pixel value) [4]: 13900 | average signal intensity (mean pixel value) [5]: 23000 | average signal intensity (mean pixel value) [6]: 2400
